Measured values taken from a protein production outcome set (Wang et al. 2014).

Assay: label from the status in PepcDB records

Sequence | protein production
MSQWITEWIPQVMNQLGYGGISLLMFLENLFPPIPSELIMPLAGFAVAQGKLELFPAIVAGIIGTILGAYPWYYIGKWVSEERLEQLADRYGKWIGLDAKDIHKSNVWFGRYGHQSVFFGRLVPGIRTIVSLPAGVNAMGLISFTLYSLGGISLWVTFLASAGYKLGDHYELVEQYLGPVSKIVLVSIVAILVLLIVRKQLRRRA | failed
MAPKDQAADMDYDQTKKMVVDILKTDDGKKAIKELLNDDAMNEALVIDQDAIKGTIEKTLTSKKGEEFWKNIFEDTDFAEGFAKTLQTEHEKVIKKLMKDPDYQKMLMSVMQDPGMDKKYSQLAKSQEFRSYLEEVINETLSSPLYKKQFEDELKKAAKDTAKESELEHHHHHH | not failed
MGRCSHGLREGRRGEPVRDPTPLDRAGCSVLPGGAKLYYSMAFKMHVPPRGSGHIEEPRRLDKALKALKKSRLLDMLEKVDPGFQSLRVFETVHDPLYIKGILAELEAALDSYFIDSDTYISPGTQAALEALAASVEQASEHVAEGGKALVLGRPPGHHAGVAGPGLGAPSLGACLVNAAASLAYRLAGRGLKVLILDFDANHGNGTQEILQALPMGDRLFHLDMHQDWRKSFPWTGEPGVTGDGTALNIVLPEGSGDDIVLALIEGLEPLVNESEPDAVVVSMGFDGYSGDSPLTLTKLTSHTFHALGRLASRYPVAAVLETGFGRGLELGLPAFIAGLLGLGNPVQEEAIKSDEEVWREFLETNKEVVEHG | failed
MMDYALLSLMLLFTLLLAFILTRLKVSPVIAYLLGGLISFNYFHFDFNSSYFEILNFLALNLLAFEIGTSFDISRAKELFRRAMGIALTELILIVLISYFIGLYLLHLDLFASLFLVMASIDTSTSILYKIIGNKVDKNDRDLLVAVASVEDIEVFFLYSIAIALNGSFNVFRISFVILEVFIASLIIYAFAKYFLTGLSIFKFTSFEDESILILVPIVLVFVFEYISQVTQVPATLTMILAGIAFSSISGSEKVLRYTGPIREFSLIFFFLSVGSYLKITAGISTFVLISFIILAIKYFSFSTASWVSGTTLVKAFTNGLYMLPLSEFGIIVSLQALQQGIDIAIVYYISVVVVLVSSIIASILAVRVNVLQRVIGIVYSRSYFLRQLDSTIIWLNKTLSTNLSPILRSVLFRGFVKMFLYLILPYVLFPIINSIVKSIIDPINNLILQYLLYSGEIVIALFLLYLFLLEGSRLYSIINNEILVRIVRVRSRLFKEFWFGLTSFSSTFYTIILTIIYIIFEIIPLLYNFPIRLVFVPLLISLYFIYRYRAPPITYTRIDNKEADKIVKLSVKVIKKMRKRRSKRSIISTTKTVRREWS | failed
MGHHHHHHSHMYRYFTPKIVKRALNIWPPFWGAGISIENISSDFQEVSVILKDRFWNRNANRTQYGGSIFSMTDPVFSLMLMGILRDEYYVWDKQSEIDFISPGTTDLHARFVISDEQLAEIKQETKEGEKHFPQFEVYIYDKKGKVVARVNRTLYVRKKPEFR | not failed
MNTIRPVSDLRNNFADISKIVHQSQQPVFLTKNGYGDMVVMSMETFEDMKFESDIYSKLQEAEKQASLTGKRFSSKDVFEEIQKLISELEHHHHHH | not failed
MIILDNLEQFKVVYRDGRKWNRCVEAIENIGNLRDGIMYSIGDSLVYMIEDGIAKNTETFVGNRRYFDIHYYLEGRETVEVASKSELESVQAYSDETDREHLNGNGQKHQLCEGQVAVFDNTKAYKFHGDNRVRKVVLKVTIEDGYFLNK | failed
MKPNIVLIMVDQMRGDCLGVNGNEFIETPNLDMMATEGYNFENAYTAVPSCIASRASILTGMSQKSHGRVGYEDGVSWNYENTIASEFSKAGYHTQCIGKMHVYPERNLCGFHNIMLHDGYLHFARNKEGKASTQIEQCDDYLKWFREKKGHNVDLIDIGLDCNSWVSRPWGYEENLHPTNWVVNESIDFLRRRDPSKPFFLKMSFVRPHSPLDPPKFYFDMYKDEDLPEPLMGDWANKEDEENRGKDINCVKGIINKKALKRAKAAYYGSITHIDHQIGRFLIALSEYGKLNNTIFLFVSDHGDMMGDHNWFRKGIPYEGSARVPFFIYDPGNLLKGKKGKVFDEVLELRDIMPTLLDFAHISIPDSVEGLSLKDLIEERNSTWRDYIHGEHSFGEDSNHYIVTKKDKFLWFSQRGEEQYFDLEKDPKELTNLINSEEYKERIDYLRKILIKELEGREEGYTDGNKLLKGYPVSTLKHIR | failed
MSVDPMTYEAQFFGFTPQTCMLRIYIAFQDYLFEVMQAVEQVILKKLDGIPDCDISPVQIRKCTEKFLCFMKGHFDNLFSKMEQLFLQLILRIPSNILLPEDKCKETPYSEEDFQHLQKEIEQLQEKYKTELCTKQALLAELEEQKIVQAKLKQTLTFFDELHNVGRDHGTSDFRESLVSLVQNSRKLQNIRDNVEKESKRLKIS | failed
MGVLDIVKAGVISGDELNKIYDYAKAEGFAIPAVNVVGTDSINAVLEAAKKVNSPVIIQFSNGGAKFYAGKNCPNGEVLGAISGAKHVHLLAKAYGVPVILHTDHAARKLLPWIDGLIEANAQYKKTHGQALFSSHMLDLSEESLEENLSTCEVYLQKLDALGVALEIELGCTGGEEDGVDNTGIDNSKLYTQPEDVALAYERLGKISDKFSIAASFGNVHGVYKPGNVSLQPEILKNSQKFVKDKFALNSDKPINFVFHGGSGSELKDIKNAVSYGVIKMNIDTDTQWAFWDGVREYELKNRAYLQGQIGNPEGDDKPNKKYYDPRVWLRSGEESMIKRLEIAFEDLNCINKN | not failed
MTATWEKKEGNEGLLTVTVPAEKVNKALDQAFKKVVKQINVPGFRKGKVPRPIFEQRFGVEALYQDAIDILLPDAYGEAIDETDIKPVAQPEVSVTQIEKGKDFIFEATVTVEPEVKLGDYKGLEIEKQETELSDDELQEAIDHSLGHLAEMVVKEDGVVENGDTVNIDFSGSVDGEEFEGGQAEGYDLEIGSGSFIPGFEEQLEGMKVDEEKDVVVTFPEEYHAEELAGKEATFKTKVNEIKFKEVPELTDEIANELDAEANTVDEYKENLRKRLAEQKATDAENVEKEEAITKATDNTTIDIPEAMVNTELDRMVSEFAQRIQQQGLDLQTYFQISGQDETQLREQMKDDAEQRVKTNLTLTAIAEAEKIEATDEDIDKELEKMSKQFNISVEDIKNTLGNTDIIKNDVRIQKVIDLLRDNAKFVEGTKED | failed
MNSIRSSPAIGENRTVYIGSYDGKLYAFNPDGTLKWSYTTGNQITGSATIGADGTICIGSYDRRLYTINPDGTLKWSYTTGNQIFSSAAIGEDGTIYVGSRDNKLYALNPDGTLKWSYTTGNQIFSSAAIGEDLEHHHHHH | failed
MTTPAPVPRITVLLPVYNGEQYLREALDSLLTQTYRNFSLLAVDDGSTDSSLEILRSIKDPRLSVKVNPRNRGLINTLNESLDLIQSEYVARMDADDIATPYRLEEQLAFMDAHPDVGLCGGYYERFTDTESIVVRPPTTHEDISYALIFDNVMAHNTVMFRRSVLERYRLRYDPAFAYAEDYELWVRFARYSRLANLPRVLVRYRFHPANTSSRFRHEQQIAAAKIRHIHRTNLGLEPRPGDAALHRQLFDMRFEGDLPELTAAGIWLSKLYRVGVRRCRQNPVSTFLEFNKLWYSACGRLADHGLKVFAQFLRQPFGFLGNPAYTLKLAYRCWRRIRIALEHHHHHH | failed
MVKNGIILGKRYEVISKIGAGGMADVYKGKDHMLNRYVAIKVLKKEFKEDENFVRKFRSEAQAAAGLIHPNVVNVYDVGEDRGLYYMVMELVEGITLKEYIDKKGRLSHKETISIAIQMCTGIGVAHAANIIHRDIKPQNIIISKDGKVKVTDFGIAKATTSNTISSNAMGSVHYTSPEQARGGFSDQKSDIYSIGITLYEMVTGQVPFDGDSTVSVAIKHLQEEITPPSEIVPDIPYSLEQIILKCTQKNGERRYRNTGELIQDLKRSLVDPDGDFVVIPPLGNADTVIITDEELDDIRSSYDDEEEFDEYDEDEYGDEEEFDEYDEDDDEYDEYDDDEEYGGKGKKGKSSDDVNPRMKKVMKILTIVVAIIIVFILVFAIGKAAGIFKGGFGIDTVDTDEKTKVKVPNVVGMTEDEAKKTLNKKGLGFKVVAREESKKYEEGTVSKQKTEAGKRVAKNTTIQVVVSSGLVGDEITVPNVSNMSESEAQKALEDAGFEKITSDFAYSDSVAEGDVIGTTPAANARATKDTEIVMKVSKGSEKKTVPNVVGQQDGDAQNAITAAGLTVGTVTYEYYDDVPKGQVVSQTVAGGKKVAPGTSVGLTISSGPKPPEKVSVPPVTGISIEEARALLDGVGLKADIKYDSETVGTVGQVIKCNPGVGTQVDEGSTVTLIVISKSSQPDGGETESTQ | failed
MACNTCKMCESADKKLESFVASKDVETAFHRTEDQKVKCGFGLQGVCCRLCSNGPCRVTPKSPRGICGADADTIVARNFLRAVASGAACYLHVVENTAKNLKNVGITKGVVKGEKTLNQLAEMFGIESDEKYDKCIKVADKVINDLYKSRDDKMELVEKIAYAPRVKKWKELGIMPGGAKSEVFDAIVKSSTNLNSDPVDMLVNCLNLGISTGLYGLTLTNLLNDVMLGEPVIRMAPVGFNVIDPDYINIMITGHQHSTFANFQDRLKDEDVIKLAQSVGAKGFKLVGCTCVGQDLQLRGEHYQEVFAGHAGNNFTSEAVLSTGAIDIVLSEFNCTIPGLEPIADKYKVKMVCLDDVAKKANAEYIGLDRSKLDELSNTLIEKALESYKERRGSIEIDIPKDHGFEQSLTGVSEKNLKAFLGDSWKPLINLIAEGKIKGVAAVVGCSNMTAGGHDVNTVELTKELIKKDIIVLSAGCSTGGLENVGLMSPGAEELAGENLKEVCKTLGIPPVLNFGPCLAIGRLEIVATELAAELGIDLPQLPLVLSAPQWLEEQALADGAFGLALGLPLHLALPPFITGGKLVTEVLTEKLKDLTGGHVIVNPDPKSSANQLEEIIIDRRKNLGLKDVECNA | failed
MATIAAADRTVTSVRPAELGVKVVIVMALLLIVMLIFAYKVVSLHNMKDEPFWAAYGLIITAFIFTRFGLAALYRPPRRDTGNYWPVVAIIVPAYNEPDIARTLLHCVGVDYPRELLRVVVVDDKSSDDTLRRITDFAAEHPNLTVIPHEVNGGKRRAMATGMAAADDADLFVFIDSDSQVTRDAIRVIASYFADSSVGAVCGHTDVTNISHNILTRMQAMQYYIAFRIYKSAEALFGSVTCCSGCFSAYRADAVRPVADKWLNQTFLGRPSTFGDDRSLTNYLLRDWRVLYAPDAQAYTNVPEHLKQFLRQQLRWKKSWLREAPRAMCAVRRKNPVMVVMFALSIVLPLIAPQVVMRAFVVQPHFISQLPFWYFGGVAAIAVIYGLFYRLHRPVKRWYQGIFFTMFYTIILVLQMPYAMVTIRDSKWGTR | failed
RDRPAGLLRINATLGFGRTHLAPAIARFRRIHPAVEVQLLLTDAPLNLVEEGIDLGIRFGAPPFGRMVMRLLQRNRRFLCAAPSYLEARGVPQSLTDLQQHSCIVLRQDHDAYDVW | failed
MKLSINDLNVFVNTPKDIAKLCEDLSRLGLEVESCIPCIAPKNVVVGKILEKAPHKNAEKLSVCQVDVGKEVLQIVCGAKNVAPNQFVPVALNGALIGSTTIAKTELRGVESHGMICSSIELGFPKINDGILELDESVGELVLGKELNEYAPFNTHVLEISLTPNRGDCLSVLGIAREISAFYHTPLKPIKALNFTPKSGLITLSAGENIESHLAYYLICNHSLKTPLNIKLSLAHNNALSENDLNNFIEFSTHFSGVIMNAYSLNTTPMDLSVKNDENNLESVYINHQKRSTIAIKHQVQKDLSECLLLEASYTDPISLSLKLHALKDKTLQKDNALIYRSARGSNPNLSDGLNFLSAHLKATILESKQTEHSLKDRTLTFQLEDITEILGLAVEKEKIQGILKNLGFKVSVKEPNSKPQILEVIAPNFRHDIKTIQDIAEEILRFVGIDNLVSKPLHCVSSKNSNPNYDTHRFFENLKHKALACGFKEVIHYVFYSKEKQQKLGFEVLEDPLELQNPITTELNTLRTSLVCGLLDASLRNKNLGFKSIALYEKGSVYNSKREEIQKLGFLISGLQKKESYPDTKGKAWDFYSFAECVSKVIGDFSLEKLTTQTPINHPYQSAKIIQNHEIIGVIAKIHPKVIQELDLFESYYAEIDAFKLKRPAMLLKPFSIYPSSVRDLTLIIDENTAFSGIKKALKDAQIPNLSEILPLDIFKESNNSIALSVRCVIHSLEKTLNDEEVNSAVQKALEILEKEFNARLKG | failed
